Consider five proteins from article PMC7459334, “Akkermansia muciniphila uses human milk oligosaccharides to thrive in the early life conditions in vitro” (Scientific Reports, 2020).

What all share (experiment): purified protein
Substrate in data set [1]: CC(=O)N[C@H]1[C@H](Oc2ccc([N+](=O)[O-])cc2)O[C@H](CO)[C@@H](O)[C@@H]1O
It counts as biochemical, Akkermansia muciniphila. Conditions: McIlvaine buffer.

Substrate in data set [2]: C[C@@H]1O[C@@H](Oc2ccc([N+](=O)[O-])cc2)[C@@H](O)[C@H](O)[C@@H]1O
It counts as biochemical, Akkermansia muciniphila. Conditions: McIlvaine buffer, pH 5.6, 37 °C, text b19 prints 839 ± 46.72.

Substrate in data set [3]: O=[N+]([O-])c1ccc(O[C@@H]2O[C@H](CO)[C@H](O)[C@H](O)[C@H]2O)cc1
To be noted: McIlvaine buffer, pH 5.0, 37 °C.

The mark [4] stands for this setting: pH 5.6, 37 °C, text b19 prints 322.37 ± 43.64.

B1: Amuc_2136 (Akkermansia muciniphila ATCC BAA-835) (protein)
chain: QDAKQIADSLSIPPVKAGAKQLPMPSVSGAQIKLLGADYEQLVNSKGKIAPVISDTPVNVSFKVTKDGKEAVSKDYEIMLQAPQAAQGNPKPRIIPEILQWKGGQGEYKLGNTVTIACPDKELGKLFAADMEDVLGKKVKLVAPGAKADISLSLLKGGNLGREGYRLQIARDGVRLGAAAPTGLFWGTRTLLQMLRQTPGSVPCGTAVDFPRYQLRGFMLDVARTPYPLSYLKDVIRTMAWYKMNDLHLVINNNYIFHEHYVDNGHDPFKESYAAFRLESKMKGKDGTPLTARDLFYTKKEFADLVSYARKYGVNIVPEFDTPGHALSFTRLRPDLIYKGPMNHEKRRCEMLDAANPETIDLVSKVFDEYMLKDPKLGRPVFADCGVVHVGADEFYGDKEDYRHFANAVLTHALKRGYTPRIWGSLSAKPGKTPVVSKGVQMNLWSTGWMKAWEAVNQGYDVINTNDGALYIVPFAGYYRMDRNHKGLYNNWIPNRIGNETLPSGHPQLLGGTFAVWNDETDIMHTGYAPYDIWGIISGSMDVLSQKLWGTAKAPDTFEQHRELVSSIGNAPRTNPLHKWKDSQPLTVKPSSLPQKLDKPALGPNYRLTMELELTAAPEGKEQVLLAAPEGELLAVMKDGTVGFRRDDSLEFSFGAKLPVGKKVKVEIVGEPEKTSLLLDGEPAGTAVLKNFSDKSKDFSDKFKHRPKVHRSTFILPLKELGSSFQGKVFHMNVQPL
In general, Km refers to the concentration of substrate that gives half-maximal velocity. For orientation: Vmax means the top rate of the reaction or transport when substrate is in excess. One may read the kcat as the maximal rate divided by the concentration of active sites. A word on the kcat/Km: it is the second-order rate constant that governs catalysis at low substrate concentration. In the case of B1, in “purified protein [1]” (pH 5.0, 37 °C), the Km came to 714.55 ± 47.96 µM, the maximal velocity (Vmax) came to 109 µM/min, the turnover number (kcat) turned out to be 1490 s⁻¹ and the kcat/Km came out at 2.08e+06 M⁻¹ s⁻¹.

B2: Amuc_0010 (Akkermansia muciniphila ATCC BAA-835) (protein)
chain: QQSATKIITENGQPALALDEQFAARLRDGGMKQGSPATVPAEFSAAAPGLPLPADANHAAVRETAGERNRRMEWWRDAKFGMFIHYGLYSGLAGEWKGRPGGSEWIQKNVEVDTDTYAAEALPLFKPREGLTEEWAQLARDAGCQYVVLTSKHHEGFGLFDSALTDYDAKSAVNRDIIREYVDSCRKRGLKVGLYHSVIDWHHPSYDNTICPDLCYPAGQAAMLNRKNIPRDHAAYQKYLHAQVRELMTRYAPIDIMWWDYSQGAMEGAKGWKAPELMDMVRSINPGVIMNNRLYAYSGLNKNQAGTLDLRCGDYITPERFIPRRGYPGVDWESCMTVSDKWGYNRYDTNIKSPETIIEKLVECVTKGGNLLLNVNPMADGTIPEKVAATMRGVGRWLNINGEAVYGTRAFMQLDQPATINRQGDIFIFLIPPPDKEPAQPPSEGTMKELTAGAEHARMQPLDATGYENDGGTAVTLPAGYSKALLLGDNTALPVVNGTVLFKAHEHSKTPCSVIKLSK
As for B2, in “purified protein [2]”, the Km is 841.23 ± 46.72 µM, the Vmax is 19.8 µM/min, the kcat was 378 s⁻¹ and the kcat/Km is 451000 M⁻¹ s⁻¹.

B3: Amuc_0771 (Akkermansia muciniphila ATCC BAA-835) (protein)
chain: GPEAVQNVQKPALSGGPPVVFGFGGEGNQEFMLNGKPFQIRGAEMHPQRIPREYWRHRIRTAKAMGLNTIAFYVFWNDHEQPDGSFDFKTGNRDLEGFLKLCQEEGMWVLFRPGPYACGEWDLGGLPHYLLKDPKAKLRTTEDAKFMKAQTRYLEAVARVAEPFLAKNGGPILMTQLENEYGSYQRKDRKYMEWLKAFWSRKGFGPFYTSDGAGEHFLKGVVLPGVAVGLDPGLNDGHWAVANKCNPGVPVFSSETYPGWLRHWGEGNWAPTPGVVNHVRWFMDKGRSFSLFVFHGGTNFGFSAGANNGGPGKYQPDLTSYDYGSPVDEQGRMNEYYAQMREIILKKLPPEAAVPEPPADIPAMEIPEFTPAVHAGLWENLPKPFRSKFPQPPYFEQWNQNQGIAVYRTAVPSGPPETLEFTNVNDYAQVYLDGELVGTLDRRLGQKSVKLPERRKPGTLEVLVEAMGHINFHISMESDRKGIYGPVKLGTRELKNWTVRALPLKADSIVRAPKGKGPSQKREGAHFRAVVNIEEPQDTFLDMSRYVKGYVWVNGINVGRYWNVGPQLRLYVPAPFLKKGENVIDILDLHEKEPKPVRGMKERNKEPGKINTKNLDNQW
With B3, in the data set “purified protein [3]”, the Km was 2,599 ± 565.27 μM, the Vmax turned out to be 60.1 µM/min, the kcat was 13.8 s⁻¹ and the kcat/Km stood at 5670 M⁻¹ s⁻¹.

B4: Amuc_1686 (Akkermansia muciniphila ATCC BAA-835) (protein)
chain: AAPMPLPESNDGARHVFSTNQENFLMDGKPVKIISGEMHYPRVPRQHWKDRFQRIKAMGMNTVCTYLFWNVHEPEPGKWDFSGNLDFVEFIKEAQKAGLWVIVRPGPYVCAEWEFGGFPGWLLKDEDLKVRSQDPRFLEPAMAYLKKVCSMLEPLQITKGGPIIMAQVENEYGSYGSDKDYVKKHLDVIRKELPGVVPFTSDGPNDWMIKNGTLPGVVPAMNFGGGAKGAFANLEKHKGKTPRINGEFWVGWFDHWGKPKNGGSTEGFNRDLKWMLENNVSPNLFMAHGGTSFGFMNGANWEGAYTPDVTNYDYGAPISENGTLTDRYRTFRQTIQDYYGDTYKLPEPPAQPEMMELPPITFTETAGMFSRLPQPVIRKEPVHMEALGQSLGFILYRTKVNGPVKGELKMNNMQDRAIVYVDGKRQGAADRRYKQDSCDIVIPSGLHTVDIFVENMGRINFGGQIQGERKGIRGPITLDGKKLENFLIYNFPCKGVELIPFSGKKPAGDQPVFHRGYFNVSNPKDTYLDMRDGWKKGVVWVNGRNLGRFWFIGSQQALYCPGEYLKPGKNEIVVLDVDGGSGTVKGVKEAIYEVNRDPAMADVFRVGKPVAPAAGQLVHKGSFAKGADQQEIKFRAPVQARYIAIVSKNAHDNGPHAAIAELNFLDASGNLLPREQWSVVYADSHETTGEAAQAGLVMDNQPTTYWHTKWQGDNPRHPHMIVLDLGKVQKLSGFRYLPRQDRENGRIKDYEVYASPKPFKPAK
For B4, in the data set “purified protein [3]”, the Michaelis-Menten constant (Km) came out at 319.40 ± 259.30 µM, the Vmax was 29.3 µM/min, the catalytic constant (kcat) was determined as 27.2 s⁻¹ and the kcat/Km was 70200 M⁻¹ s⁻¹.

B5: Amuc_0369 (Akkermansia muciniphila ATCC BAA-835) (protein)
chain: QEQIIPKPAEITLFTGSPARLTPDSLIITETQDKAFLDQAGQLQQMLSAGTGLPLPLKPAGQASKKAACIVIKKDPALAARGEEAYSIQSSPSGIILSAADARGIFYAGQSLVQMMPSVFHDRTGDKSAVRWNISETPFRITDYPRFSWRALMIDEARHFFGEKTIKQIIDQMALLKMNILHWHLTDDTGWRIEIKKYPRLTSIGSKRRESEIGTWNSGKSDGTPHEGFYTQEQIRDIVQYAARRNITIVPEIEMPGHASAAAVAYPFLSLKTPGEVPTTFIVNTAFDPTSEKTYAFLSDVLDEVTAIFPGRIIHIGGDEVRYDKQWKGVPEIEEFMKKNGMKSYADVQMHFTNRMSGIIAQKGRRMMGWNEIYGHDVNGDGGGKAGAKLDTNAVIQFWKGNTSLAKNAIRDGHDVINSLHTSTYLDYSYGSIPLQKAYGFEPVFPGLEKQYHSRVKGLGAQVWTEWISTPERLHYQAFPRACAFAEVGWTPAGKKDFPDFKKRLKAYSERMDLMGIKFARNVISQIDKSDFFNTPRIGTWTPATLTREEHSFDVTKLVKASGKHTVTLLYDKGAHAIEIESVALYENSREVSRDAHAGRSGAHKENIQYILNAPAPRQGATYTVKANFKGAGGRDSHGTVYFETP
Take B5: in “purified protein [1]” (setting [4]), the Km was found to be 323.38 ± 43.64 µM, the Vmax amounted to 55.6 µM/min, the kcat was determined as 670 s⁻¹ and the kcat/Km turned out to be 2.07e+06 M⁻¹ s⁻¹.
